Molecular target: Pomacea bridgesii metallothionein 2 (PbrMT2), recombinant Cd(II)-loaded preparation (Pomacea bridgesii)
Experiment: native MS; ESI-TOF MS at neutral pH (7.0), running buffer 5:95 acetonitrile:ammonium acetate (15 mM); Cd-PbrMT2 production from a CdCl2-supplemented culture; dimeric species seen together with monomeric Cd8- and Cd9- species

stoichiometry N: 2
Substance: Pomacea bridgesii metallothionein 2 (PbrMT2), recombinant Cd(II)-loaded preparation (natural protein)
